Assay results: patent publication US20040146873
Numbering of substitutions follows the chain as printed.

Assays:
[1] = test system: T1, hPER2 fragment, amino acids 474 to 815, wild-type (662S), 6-myc-tagged
T1 sequence: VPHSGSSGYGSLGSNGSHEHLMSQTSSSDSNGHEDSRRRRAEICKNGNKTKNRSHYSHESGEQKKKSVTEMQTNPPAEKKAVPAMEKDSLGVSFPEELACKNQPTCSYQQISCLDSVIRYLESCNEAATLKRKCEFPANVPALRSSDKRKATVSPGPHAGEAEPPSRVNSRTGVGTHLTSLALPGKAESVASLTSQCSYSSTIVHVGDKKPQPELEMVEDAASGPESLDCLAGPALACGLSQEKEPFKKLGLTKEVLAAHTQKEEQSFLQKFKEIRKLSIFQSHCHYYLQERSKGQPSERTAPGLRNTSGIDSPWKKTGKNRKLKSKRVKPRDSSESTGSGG

[2] = test system: T2, hPER2 fragment, amino acids 474 to 815, S662E, 6-myc-tagged
T2 sequence: T1 sequence with S189E

[3] = test system: T3, hPER2 fragment, amino acids 474 to 815, S662D, 6-myc-tagged
T3 sequence: T1 sequence with S189D

[4] = test system: hPER2 peptides in the region of serine 662 with a negative charge at position 662 (covalently linked phosphate or aspartate)
[5] = biological target: mPER2 fragment, amino acids 472 to 804, serine 659 substituted by glycine, 6-myc-tagged (UniProt O54943)
[6] = biological target: mPER2 fragment, amino acids 472 to 804, wild-type, 6-myc-tagged (UniProt O54943)
[7] = test system: T4, hPER2 fragment, amino acids 474 to 815, mutant S662G (662G), 6-myc-tagged
T4 sequence: T1 sequence with S189G

Chain of casein kinase Iε (CKIε) (P49674 whole entry, the tested form may be a part): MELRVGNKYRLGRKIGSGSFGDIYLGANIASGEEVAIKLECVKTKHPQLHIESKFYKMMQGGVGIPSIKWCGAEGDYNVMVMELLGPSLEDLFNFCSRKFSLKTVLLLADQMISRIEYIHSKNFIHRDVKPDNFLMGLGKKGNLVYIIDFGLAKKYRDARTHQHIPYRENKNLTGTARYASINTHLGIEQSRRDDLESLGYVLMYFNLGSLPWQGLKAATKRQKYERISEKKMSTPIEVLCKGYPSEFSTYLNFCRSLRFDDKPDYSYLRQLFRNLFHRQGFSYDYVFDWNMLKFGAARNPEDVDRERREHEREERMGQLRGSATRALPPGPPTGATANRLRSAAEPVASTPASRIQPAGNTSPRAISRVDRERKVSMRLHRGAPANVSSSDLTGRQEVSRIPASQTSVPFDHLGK

casein kinase Iε (CKIε)
electrophoretic mobility shift (phosphorylation) at higher CKIε, 6.5 ng/µl [1]: mobility shifts were observed for both the wild type and mutant hPER2 fragments | electrophoretic mobility shift (phosphorylation) at low CKIε, 0.25 ng/µl [1]: an electrophoretic mobility shift was observed with the wild-type (662S) but not with the mutant (662G) fragment | phosphorylation (mobility shift) [2]: Phosphorylation was restored in both the S662D and S662E mutants, with a higher phosphorylation rate observed with the S662D mutant | phosphorylation (mobility shift) [3]: Phosphorylation was restored in both the S662D and S662E mutants, with a higher phosphorylation rate observed with the S662D mutant | phosphorylation stoichiometry (biochemical phosphorylation assay and mass spectrometry) [4]: phosphorylation of an additional four moles per mole of substrate when there is a negative charge at serine 662 | electrophoretic mobility shift (phosphorylation) at low CKIε [5]: A similar result was obtained with wild-type and mutant mPER2 fragments (data not shown) | electrophoretic mobility shift (phosphorylation) at low CKIε [6]: A similar result was obtained with wild-type and mutant mPER2 fragments (data not shown) | electrophoretic mobility shift (phosphorylation) at higher CKIε, 6.5 ng/µl [7]: mobility shifts were observed for both the wild type and mutant hPER2 fragments | electrophoretic mobility shift (phosphorylation) at low CKIε, 0.25 ng/µl [7]: an electrophoretic mobility shift was observed with the wild-type (662S) but not with the mutant (662G) fragment
